PMC4268010 (Molecular cell, 2014)
“And” between values parts separate entries of the source, which are not always exact repeats. Equal values may be shown once.

T1: Strep-tagged Smc5 (UniProt Q08204 1-1093)
T1 sequence (looked up): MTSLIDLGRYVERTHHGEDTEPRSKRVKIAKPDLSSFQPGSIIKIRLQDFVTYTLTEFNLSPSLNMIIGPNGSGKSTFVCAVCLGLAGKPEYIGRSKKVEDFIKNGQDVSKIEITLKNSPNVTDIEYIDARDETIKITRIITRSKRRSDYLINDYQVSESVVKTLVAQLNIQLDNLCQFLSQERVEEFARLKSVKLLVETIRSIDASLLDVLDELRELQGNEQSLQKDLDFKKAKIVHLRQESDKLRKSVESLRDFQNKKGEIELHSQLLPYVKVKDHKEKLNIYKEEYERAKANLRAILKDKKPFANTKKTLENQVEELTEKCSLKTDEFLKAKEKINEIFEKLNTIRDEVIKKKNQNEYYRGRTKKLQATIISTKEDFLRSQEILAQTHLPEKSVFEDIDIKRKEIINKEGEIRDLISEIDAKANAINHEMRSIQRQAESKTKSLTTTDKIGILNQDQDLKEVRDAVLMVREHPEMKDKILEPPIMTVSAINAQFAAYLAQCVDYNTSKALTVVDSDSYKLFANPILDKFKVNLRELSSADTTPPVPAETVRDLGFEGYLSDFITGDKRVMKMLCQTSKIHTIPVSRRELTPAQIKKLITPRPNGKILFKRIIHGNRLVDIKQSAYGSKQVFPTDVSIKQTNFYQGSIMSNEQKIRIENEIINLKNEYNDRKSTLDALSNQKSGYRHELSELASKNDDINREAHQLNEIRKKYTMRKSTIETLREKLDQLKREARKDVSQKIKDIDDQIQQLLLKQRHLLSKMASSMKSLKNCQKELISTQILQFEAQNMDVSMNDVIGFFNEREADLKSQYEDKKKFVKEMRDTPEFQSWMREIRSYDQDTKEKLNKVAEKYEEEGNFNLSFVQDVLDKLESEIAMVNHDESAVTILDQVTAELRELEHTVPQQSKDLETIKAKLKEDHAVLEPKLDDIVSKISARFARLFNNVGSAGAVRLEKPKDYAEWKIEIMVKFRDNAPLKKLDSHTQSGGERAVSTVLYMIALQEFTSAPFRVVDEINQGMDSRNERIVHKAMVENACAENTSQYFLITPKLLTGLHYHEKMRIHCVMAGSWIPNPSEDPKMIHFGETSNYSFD

T2: His6-Flag-tagged Mph1 (budding yeast), P40562
T2 chain: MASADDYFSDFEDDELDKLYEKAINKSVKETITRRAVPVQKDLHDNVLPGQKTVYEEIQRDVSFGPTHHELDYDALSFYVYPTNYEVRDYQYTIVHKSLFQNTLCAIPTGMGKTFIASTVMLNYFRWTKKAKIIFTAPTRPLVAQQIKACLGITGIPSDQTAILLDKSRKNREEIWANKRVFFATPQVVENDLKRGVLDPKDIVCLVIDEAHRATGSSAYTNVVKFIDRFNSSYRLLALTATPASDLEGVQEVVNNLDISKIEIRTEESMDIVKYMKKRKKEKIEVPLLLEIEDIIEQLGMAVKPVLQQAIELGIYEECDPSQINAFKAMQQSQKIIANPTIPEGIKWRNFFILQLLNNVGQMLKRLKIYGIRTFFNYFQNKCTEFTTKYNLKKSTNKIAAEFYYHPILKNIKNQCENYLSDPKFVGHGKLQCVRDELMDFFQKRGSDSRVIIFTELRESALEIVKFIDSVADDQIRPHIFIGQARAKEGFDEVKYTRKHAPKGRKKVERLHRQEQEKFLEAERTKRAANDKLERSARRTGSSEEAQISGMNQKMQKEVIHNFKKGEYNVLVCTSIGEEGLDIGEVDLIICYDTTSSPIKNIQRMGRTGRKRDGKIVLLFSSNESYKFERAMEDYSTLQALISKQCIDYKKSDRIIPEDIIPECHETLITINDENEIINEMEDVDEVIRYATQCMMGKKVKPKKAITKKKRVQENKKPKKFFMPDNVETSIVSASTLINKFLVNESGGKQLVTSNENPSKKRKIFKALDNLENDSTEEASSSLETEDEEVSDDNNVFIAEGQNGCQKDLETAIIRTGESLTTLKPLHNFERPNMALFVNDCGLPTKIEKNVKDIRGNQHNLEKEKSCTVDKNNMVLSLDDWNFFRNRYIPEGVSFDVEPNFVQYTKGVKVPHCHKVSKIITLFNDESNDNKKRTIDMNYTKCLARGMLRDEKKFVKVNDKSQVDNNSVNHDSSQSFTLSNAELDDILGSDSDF

T3: MBP-tagged Smc5 (WT) (UniProt Q08204 1-1093)
T3 sequence (looked up): T1 sequence (looked up)

B1: His6-Flag-tagged Mph1 (enzyme, budding yeast, UniProt P40562 1-993, looked up)
chain: T2 chain
B2: MBP-tagged smc5-ΔNC (residues 149-944) (domain or fragment, UniProt Q08204 149-944, looked up)
chain: DYLINDYQVSESVVKTLVAQLNIQLDNLCQFLSQERVEEFARLKSVKLLVETIRSIDASLLDVLDELRELQGNEQSLQKDLDFKKAKIVHLRQESDKLRKSVESLRDFQNKKGEIELHSQLLPYVKVKDHKEKLNIYKEEYERAKANLRAILKDKKPFANTKKTLENQVEELTEKCSLKTDEFLKAKEKINEIFEKLNTIRDEVIKKKNQNEYYRGRTKKLQATIISTKEDFLRSQEILAQTHLPEKSVFEDIDIKRKEIINKEGEIRDLISEIDAKANAINHEMRSIQRQAESKTKSLTTTDKIGILNQDQDLKEVRDAVLMVREHPEMKDKILEPPIMTVSAINAQFAAYLAQCVDYNTSKALTVVDSDSYKLFANPILDKFKVNLRELSSADTTPPVPAETVRDLGFEGYLSDFITGDKRVMKMLCQTSKIHTIPVSRRELTPAQIKKLITPRPNGKILFKRIIHGNRLVDIKQSAYGSKQVFPTDVSIKQTNFYQGSIMSNEQKIRIENEIINLKNEYNDRKSTLDALSNQKSGYRHELSELASKNDDINREAHQLNEIRKKYTMRKSTIETLREKLDQLKREARKDVSQKIKDIDDQIQQLLLKQRHLLSKMASSMKSLKNCQKELISTQILQFEAQNMDVSMNDVIGFFNEREADLKSQYEDKKKFVKEMRDTPEFQSWMREIRSYDQDTKEKLNKVAEKYEEEGNFNLSFVQDVLDKLESEIAMVNHDESAVTILDQVTAELRELEHTVPQQSKDLETIKAKLKEDHAVLEPKLDDIVSKISARFARLF

Key:
Strep-tagged Smc5 = target: T1, Strep-tagged Smc5; experiment: pull-down
[1] = target: Myc-Smc5-Strep-Smc6 complex (UniProt Q08204 1-1093; Q12749 1-1114); experiment: pull-down
[2] = target: T2, His6-Flag-tagged Mph1 (budding yeast), …; experiment: atomic force microscopy, volume analysis; conditions: remark: other sources report otherwise
MBP-tagged Smc5 (WT) = target: T3, MBP-tagged Smc5 (WT); experiment: pull-down
[3] = target: T2, His6-Flag-tagged Mph1 (budding yeast), …; experiment: atomic force microscopy, volume analysis; conditions: remark: other sources report otherwise
His6-Flag-tagged Mph1 = target: B1; experiment: pull-down

Chain of Myc-Smc5-Strep-Smc6 complex (Q12749 whole entry, one chain of several): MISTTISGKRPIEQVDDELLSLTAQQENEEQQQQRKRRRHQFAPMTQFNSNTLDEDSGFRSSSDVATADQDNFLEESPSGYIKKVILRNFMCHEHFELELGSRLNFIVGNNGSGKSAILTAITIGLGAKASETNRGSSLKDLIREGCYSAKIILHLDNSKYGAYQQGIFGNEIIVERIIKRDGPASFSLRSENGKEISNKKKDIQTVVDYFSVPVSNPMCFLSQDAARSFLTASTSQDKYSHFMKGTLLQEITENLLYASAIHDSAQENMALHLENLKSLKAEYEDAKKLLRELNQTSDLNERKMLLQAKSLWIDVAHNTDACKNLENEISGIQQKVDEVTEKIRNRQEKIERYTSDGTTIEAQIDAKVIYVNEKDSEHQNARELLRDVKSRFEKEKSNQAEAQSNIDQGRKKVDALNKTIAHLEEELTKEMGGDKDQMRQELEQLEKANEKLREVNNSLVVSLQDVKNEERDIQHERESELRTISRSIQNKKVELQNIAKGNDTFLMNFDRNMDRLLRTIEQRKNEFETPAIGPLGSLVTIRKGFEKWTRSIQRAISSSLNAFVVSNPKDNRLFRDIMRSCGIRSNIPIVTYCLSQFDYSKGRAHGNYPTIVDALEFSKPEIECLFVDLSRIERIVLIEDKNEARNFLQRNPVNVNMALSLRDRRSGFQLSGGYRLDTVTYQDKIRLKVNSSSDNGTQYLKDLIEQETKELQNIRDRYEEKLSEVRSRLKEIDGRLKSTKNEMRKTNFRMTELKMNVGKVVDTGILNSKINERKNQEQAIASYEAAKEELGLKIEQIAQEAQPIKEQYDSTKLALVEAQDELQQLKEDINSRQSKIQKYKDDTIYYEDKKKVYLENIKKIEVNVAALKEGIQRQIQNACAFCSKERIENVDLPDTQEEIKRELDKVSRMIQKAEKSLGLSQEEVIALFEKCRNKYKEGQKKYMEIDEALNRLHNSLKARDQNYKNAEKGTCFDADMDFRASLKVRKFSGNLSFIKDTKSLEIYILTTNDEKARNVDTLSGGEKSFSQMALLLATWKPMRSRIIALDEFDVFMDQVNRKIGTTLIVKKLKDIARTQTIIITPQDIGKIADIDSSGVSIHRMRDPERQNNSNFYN

Row | binding result (Strep-tagged Smc5) | binding result [1] | stoichiometry N (Mph1 monomer equivalents) [2] | binding result (MBP-tagged Smc5 (WT)) | stoichiometry N (Mph1 monomer equivalents) [3] | binding result (His6-Flag-tagged Mph1) | Binder
1 | binds | binds | 1.4 | binds | 7.3 and 12 and 17.4 | – | B1
2 | – | – | – | – | – | binds | B2
